# Experimental data from IntAct's records for PubMed 29954986.
# B1: Protein patched homolog 1 (Homo sapiens), Q13635-1 (parent)
# chain: MASAGNAAEPQDRGGGGSGCIGAPGRPAGGGRRRRTGGLRRAAAPDRDYLHRPSYCDAAFALEQISKGKATGRKAPLWLRAKFQRLLFKLGCYIQKNCGKFLVVGLLIFGAFAVGLKAANLETNVEELWVEVGGRVSRELNYTRQKIGEEAMFNPQLMIQTPKEEGANVLTTEALLQHLDSALQASRVHVYMYNRQWKLEHLCYKSGELITETGYMDQIIEYLYPCLIITPLDCFWEGAKLQSGTAYLLGKPPLRWTNFDPLEFLEELKKINYQVDSWEEMLNKAEVGHGYMDRPCLNPADPDCPATAPNKNSTKPLDMALVLNGGCHGLSRKYMHWQEELIVGGTVKNSTGKLVSAHALQTMFQLMTPKQMYEHFKGYEYVSHINWNEDKAAAILEAWQRTYVEVVHQSVAQNSTQKVLSFTTTTLDDILKSFSDVSVIRVASGYLLMLAYACLTMLRWDCSKSQGAVGLAGVLLVALSVAAGLGLCSLIGISFNAATTQVLPFLALGVGVDDVFLLAHAFSETGQNKRIPFEDRTGECLKRTGASVALTSISNVTAFFMAALIPIPALRAFSLQAAVVVVFNFAMVLLIFPAILSMDLYRREDRRLDIFCCFTSPCVSRVIQVEPQAYTDTHDNTRYSPPPPYSSHSFAHETQITMQSTVQLRTEYDPHTHVYYTTAEPRSEISVQPVTVTQDTLSCQSPESTSSTRDLLSQFSDSSLHCLEPPCTKWTLSSFAEKHYAPFLLKPKAKVVVIFLFLGLLGVSLYGTTRVRDGLDLTDIVPRETREYDFIAAQFKYFSFYNMYIVTQKADYPNIQHLLYDLHRSFSNVKYVMLEENKQLPKMWLHYFRDWLQGLQDAFDSDWETGKIMPNNYKNGSDDGVLAYKLLVQTGSRDKPIDISQLTKQRLVDADGIINPSAFYIYLTAWVSNDPVAYAASQANIRPHRPEWVHDKADYMPETRLRIPAAEPIEYAQFPFYLNGLRDTSDFVEAIEKVRTICSNYTSLGLSSYPNGYPFLFWEQYIGLRHWLLLFISVVLACTFLVCAVFLLNPWTAGIIVMVLALMTVELFGMMGLIGIKLSAVPVVILIASVGIGVEFTVHVALAFLTAIGDKNRRAVLALEHMFAPVLDGAVSTLLGVLMLAGSEFDFIVRYFFAVLAILTILGVLNGLVLLPVLLSFFGPYPEVSPANGLNRLPTPSPEPPPSVVRFAMPPGHTHSGSDSSDSEYSSQTTVSGLSEELRHYEAQQGAGGPAHQVIVEATENPVFAHSTVVHPESRHHPPSNPRQQPHLDSGSLPPGRQGQQPRRDPPREGLWPPPYRPRRDAFEISTEGHSGPSNRARWGPRGARSHNPRNPASTAMGSSVPGYCQPITTVTASASVTVAVHPPPVPGPGRNPRGGLCPGYPETDHGLFEDPHVPFHVRCERRDSKVEVIELQDVECEERPRGSSSN
# Variants of: B1
# Details: with shh_human SHH
row,effect of a mutation on the interaction,Variant
1,disrupting interaction,T500F;P504L
2,disrupting interaction,D513Y
3,disrupting interaction,G509V
4,disrupting interaction,L282Q;T500F;P504L
5,disrupting interaction,L282Q
